US20100189722A1 (Boehringer Ingelheim, published 2010)

T1: CD37 antigen (cellular CD37 on Ramos Burkitt lymphoma cells; also on RPMI 8226 multiple myeloma cells) (human, UniProt P11049 1-281)
T1 sequence (looked up): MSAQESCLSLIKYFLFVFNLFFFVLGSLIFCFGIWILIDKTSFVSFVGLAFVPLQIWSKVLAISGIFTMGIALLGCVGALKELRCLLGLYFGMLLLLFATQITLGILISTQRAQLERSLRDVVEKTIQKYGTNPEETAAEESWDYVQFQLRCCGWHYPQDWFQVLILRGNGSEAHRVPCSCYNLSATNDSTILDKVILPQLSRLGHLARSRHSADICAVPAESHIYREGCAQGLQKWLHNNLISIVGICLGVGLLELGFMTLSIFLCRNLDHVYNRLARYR


Molecular target: T1, CD37 antigen (cellular CD37 on Ramos …)
Experiment: cell-based or functional assay

ADCC EC50 on RPMI 8226 multiple myeloma cells [ng/mL] | Binder
~25 | Fc-engineered humanized anti-CD37 antibody B2 (S239D/I332E) (antibody, human IgG1, kappa, V domains shown) VH: AVQLVQSGAEVKKPGSSVKVSCKASGYSFTGYNMNWVRQAPGQGLEWMGNIDPYYGGTTYNRKFKGRVTLTVDKSSSTAYMELSSLRSEDTAVYYCARSVGPMDYWGQGTLVTVSS VL: DIQMTQSPSSLSASVGDRVTITCRTSENVYSYLAWYQQKPGKAPKLLVSFAKTLAEGVPSRFSGSGSGTDFTLTISSLQPEDFATYFCQHHSDNPWTFGQGTKVEIKR
~25 | Fc-engineered chimeric anti-CD37 antibody A2 (S239D/I332E) (antibody, human IgG1, kappa) heavy: not shown light: DIQMTQSPASLSASVGETVTITCRTSENVYSYLAWYQQKQGKSPQLLVSFAKTLAEGVPSRFSGSGSGTQFSLKISSLQPEDSGSYFCQHHSDNPWTFGGGTELEIKRTVAAPSVFIFPPSDEQLKSGTASVVCLLNNFYPREAKVQWKVDNALQSGNSQESVTEQDSKDSTYSLSSTLTLSKADYEKHKVYACEVTHQGLSSPVTKSFNRGEC
